This is an account of results in a protein production outcome set (Wang et al. 2014).
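Also: failed if final PepcDB status was selected cloned or expressed and not failed if soluble or beyond.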

The series is described as follows: label from the status in PepcDB records.
For the sequence “MTDQRFKIVFSGELMPDASLETVKDNLARLFKSEPGKIDALFGGRPVVLKRELPEAEAERYLTALRQAGANAYKEVDLAASLSLVETPDHNPQVAEETPAQDLPPMTCPKCGHEQPSGAECSACGVIIEKYLARQAQLGENAAPAATAAAGASPYTPPSAQVGDTLPEFGELNVFTTNGRIGRLRYLGWSMAMTLCFLVIMGLGFLLGETVGVAVTALASIAFIVIAVMIGVQRLHDLGWSGWLWLLNFVPFVGSVFGILMLVLPGSTGANRYGPPPPANSTGVKVLASLIILLPIVGIIAAIALPSYQGYLERANYDGGASAPADPYTTDEQAAAAAAEADEAATAAAEAMEDDDQQ”, the protein production result is reported as “failed”.

As to “MTDQTKPSWTADRGADLLGALFFLTRLPTPTTHTPPPFTRAVWAFPLAGALVGLIGALAVGGAQALGLSPTLAALLGVSVMALVTGAMHEDAVADIADGFGGGRTRERVLEIMRDSRVGAFGVTALVLVLALRVAALAALAGGPWAMAALVCAAGLGRGAAVLMLGLLPPARTDGLGASFGRPQQASLAFALILCLVLAVVLLPGAAPAVALVGMVAPTLYLAWRAKVRIGGQTGDVAGAAALIGETLALVGLSAMLGAAP”, the protein production result is listed as “failed”.

Regarding “MTDTLFKIMFEGQVRDGVEPETAKANLAGLFKSETAAVQKLFNGEPIALKRGLVHAEAERYIEALKEAGVEARIEPDQAISFNLNEVGNQASPWTPARQAPQDASPYAPPKAQVGSEHYGHSTLKVFTTNGRIGRLRFLAWSMVQCVALVALIALALIVLNWSLVAGGLLIAVLVVVFVTIGVMIGVQRLHDLGWSGWLLLLNLVPFVGSLFPFLIMLLPGTRGANQYGPPPPPNTRGVKVLGIIWIAMIPVISVASIYYSIGKLAEAELALQTDEYEQSLPYDDEQEPGSALNAPADVIEEPQDQNDKQ”, the protein production entry is recorded as “failed”.

In the case of “MTDWIQNLMDSMGYLGILLLMVLENVFPPIPSELIMPSAGFAAARGDMSLGMVVLMGTLGSVIGTLPLYYIGRAFGEDKLVAWADKHGKWLTLSGKDIKKADAWFDRYGAGAVLFGRMVPGIRSLLSLPAGMSEMPLPKFLIYSAIGSALWSAALAYAGYALGENYDRVEQYVAPVSKVIVGLLVIGAAAWFIRRKREQGSRTGG”, the protein production result was “failed”.

As for “MTEAPRKITDDPYGAWHLIRRLVMEQASAYWRRYALAFGLMAIAAAATSGSAFLLGKVINQAYVDRDLQGIMFWSVVTLVVFSLKGAATYGQSVILTQIKNAILANNQRRMFHKLMSESIGFFSQRHSSEFLARLTAGANSVTEVLNLLINAIGRDLLSLIGLVIVMVVQDPFMALFGLLVAPPAAFVVRKLVKRVKGLALTQFTGNAQILETMQESLQGIRTVKAFSLEKTMSDRIDANIAAVQANADKMAKVSNRSSPLMETLGGFAVAASLMYGGYRVVATGATPGEFFSFLTAFLLAYEPAKRLARLNIELNSGLVGARMLLEIIDSPPSEPDDSHKPALQLTEARVEFDHVSFAYRPDEPVLNAMSFVAEPGKMTALVGPSGGGKSTVLALLLRLYEVQSGEIRIDGQSTSTVSRESLRRQTAYVGQDVYLFRDTVRANIAFGKLGATEDEIVAAAKAACAHDFIMGFPLGYDTPVGEHGAQLSGGQRQRIAVARALLRDAPIVLLDEATAALDSESEKLVQEAIDRLARGRTTIVIAHRLHTIMHADSILVVEAGEIVEQGRHDDLLRRSGRYASFFRLQQRHATPLAPADATA”, the protein production result is reported as “failed”.

For the sequence “MTEEQLQALRAAISVCRRCRDEPARGEGHRLPHEPRPVAVLSASARILIAGQAPGLRVHESGLPFNDASGDRLRQWLSVDRAAFYDQRNFAIVPMGFCFPGYDRHGSDLPPRSECAPLWRQRAMDAMPQIELVLAVGHYAQRWHLGTDCPKSMTETVRNWQRYAKRNSGISVLPLPHPSWRNTGWLRRHPWFEAELLPFLRERVQALTI”, the protein production entry is given as “failed”.

In the case of “MTEFKVVHTICPYCGTGCGIDLVVKDGKVVDSHPFKRHPVNEGKVCIKGNYCYEFVHSEDRLTKPLIKKNGEFIEATWDEALDLIAGKLKQYSPEEVAFFSCARGTNEESYALQKFARTVMKTNNVDHCARI”, the protein production result is listed as “failed”.

For “MTEIATIEKPAQHGATTRLIDIVFPGDTNHHGTLFGGTGLALMDRVAFIAATRFGRTPFVTASCERIDFRQPARIGHIVEFTARPVKAGRRSLTVEVEMVAETIIGRQQHTCTRGIFHMVAIPEGEDAASYVLPELLTEETPDPSDAVTMVEIVFPDQANSAGRMFGGEAIAYMTKAAFVAASRYCGKLVVLASSERIDFARAIEIGEIVEAQAHVERVGRSSMSIQTKLWSENLLTGERHITATGHFTMVAVDKDHRPATIRDPAEAFSLEKGGA”, the protein production result is “not failed”.

In the case of “MTEITGGTLVLVGADHPVAHLDVTAFEASVTHDVMAASVAGTGLGVSTATAAGLSHLVVDAGVAQPVQGARSVRIRGERGDLRHADAMTPVQVEALLRDGQALGAEASHDGLVCLGEVGVGNTTIATALACAMTGLGPDEAVGLGAGSDTAMVERKAEIIKAALTRTHTDPNDPERLLAALGGPEFAVLAGVCLGAAEAGSPVVLDGLATSVAALIATKFSPGLHGWLVASQASREQVHHIVLAELGLEALMELRMRAGLEHHHHHH”, the protein production result is listed as “failed”.

Regarding “MTEKTIRVLVAGLGNMGRSHALAYHNNPGFEIVGLVNRSTPELAAELQGYTIHPDFMTALAELKPDLCSINTYSDSHADYAVAAFEAGCDVFVEKPLATTVADAERVVAAAGKAGRKLVIGYILRHHPSWMKLIGEARKLGPPYVFRMNLNQQSSGPTWATHKSLMRTTSPIVDCGVHYVDVMCQITDARAVEVRGMGLRMSDEIAADMYNYGHLQVLFEDGSVGWYEAGWGPMISETAFFVKDVMSPKGAVSIVMDPNAKSDDIDTHTKTSVIRLHTAETGPDGKFIRPDQDMTMEGEPGHQALCDLEQAFMLRAIREDLDLDRHMADAVASLRICLAADESVRTGQPVRL”, the protein production entry is reported as “failed”.

Consider “MTELAQLQASAEQAAALLKAMSHPKRLLILCMLSGSPGTSAGELTRITGLSASATSQHLARMRDEGLIDSQRDAQRILYSIKNEAVNAIIATLKNVYCP”, for which the protein production entry is recorded as “not failed”.

As for “MTELDQFWPACLARLEAELSSQQFNTWIKPLTAEAGDEGIALFAPNRFIMQFIKDRFLPRIEELAVELVGELPVELRLGAPTARPAAPVAGNSQPKAKEPAKAAASAPAAPSPAKQAAVKAIGGSHESTRLNPSFTFDTLVTGKGNQLARAAAMQIAENPGDQAYNPLFVYGGVGLGKTHLIQAIGNHVFQKNPQAKIRYIHAERYVADIMRAYQHKAFDEFKRYYHSLDLLLIDDIQFFAGKNRTQEEFFYAFNALIEGGKQVIMTCDSYPKQIEGMEERLISRFSWGLTVEIQPPELEMRVAILMKKAEADSIKLEHNVAFFIAQNVRSNVRELEGALKRVVAYARFTSQNITLELVKEALKDILAAGNRQVTVDAIQKTVAEYYKIKLSDMHSKKRSRDIARPRQVAMALAKELTQLSLPNIGDAFGGRDHTTVLHACKTITEMRASDADIAHDYEALLSMLRNLEHHHHHH”, the protein production entry is “failed”.

For “MTELFIFDREDQLLTTLTESTGLVRALFREELNRVPNQPFAFTIEASSEEAKHVIEEHQVVFRDKEGDLRLFVIKELEDVDGLDGPQTTAICEPAFMELAEHMIVEQSVVNQPAHEALNVALQGTRWTGSVEVNLGNATEHFSYVSAIEAVWNILVTWGGDFKDVVTFNAENRITSHQIKIVQRRGVDRGKRFEIDHNIEQIERTILSYPVTALYGRGASLQGENGEDGSLDFGEVEWRKSAGAPVDKPKGQLWVGDPEALQKYGRKHNGQLLHREGIFQNTNIEDPEELLEKTWEQLQKSSKPEVHYRLSVRLFEHISGYEHEQASLGDTAIAIDRQFSRPIEIQSRIIAIEYDLVDIDGTGMVEMGQFLSLNGMDERLERIIEEIEKNQGKWGSSGTITRDKYPDIKPSAPVNLRAESGFQAIQLYWDYADELYIEHYEVYGSQVSDFVPDSQHLLWRGKVSAFAHFVDKDQQWYYYVRAVNFHGRPSDWSDKVSGSTQRIISDDILFGPDLAERLRELNRISDIIGEGGVNFEQISDHAKALLNQEARQYTDEEIRAVEDAINAELAEKAGLTYVEGKFSLIDSELEAVDGKFVSVSTQLAEIETEISLKAEQTQVDVIEGEITNVAQDLSQLTVSVNGVQSEVTSIRSGIGHLVEIVNGKATEYKLHFSFNASRDYLVLLTRADLTGARNYVAGTFFGRRVSGNVGSGKIEVIFNNSSNGDRASGYFEASEIQTLNGWSMVTCDYKGEKYIALRHQLPNEHDIWNTDTRFYGQIGSDSEMLLPVDNWGGNPDITNIQPFESSRPVATPIMRAETRIDQNSQQIALRATEINSLAGRMTQAEAELSVQATEIAARVEKDGIVTALNLSPEGIRIKGSLIHLDGTTLINDGVIQNAHIANAAITRAKLDTAVIGTAQIEDLAVTSAKIASVNADKINAASLSAISANLGTVTAGVMRSNNNNMELNLNTGTLNMRNTNFTLGSGADIEFTDPGNRLYFKQYDPVGNITRSAGFGIGRSINDRFPYGFLGTTNTTKPNPIDDQNFTGFITNTNQRMITDGIGNSVVGRIFHIRDQAVSFRKGVAFNFSDSTTMNIFPINTGSYDYVFGSNNNKWKDIHADNIRAAQVYIRNPVGTGGYLFETQPESGSATMVFRGINVSFSDWNYNLGTSSAPWNFGRINHLRPSGSSHSVGSFSERYNFVYTNTLVEGSDIKIKSDIKNSFLGLAFIKDLRPVDFQLVENEQYKTGLIAQEVAAELEHHGIDLEKQTIVTINDSVMGVSYTQLIAPTIKAIQELDSYVRDEVNSLKLENQRLKEKITKLEEKIA”, the protein production entry is given as “failed”.

Turning to “MTELMGQILGDRYELLRELGSHPGRRTYLALDRWHYEQVVLKLLLFGGGITWDDFKLFEREVAVLQTLDHPAIPRYLDYFEINTPDLKGFALVQTYIEAKSLALWQAEGRVFSEGDLRLLADRLLDILIYLHSRQPPVIHRDIKPTNILLGDRSGHDLGKVYLVDFGAVQTAIAGSTRTVVGTYGYMPPEQFGGKTLPASDLYALGMTLIYLATATPPDELPQKELRVQFQPLVSLSPPFIRWLEKMVAPALEERFDSATAARHALKQLDRSAEDASLITKTPPYGSRLQVRESPQGLLVHIPPVGLNASLFFLIPFAVAWNGFLVVWYSLAIASGFWLMAVFATGHLAVGLGLIGGILYRLLGWQVLMVSPKDLRFYEHILGFRWRHAKVLPLEVIEEIELQPRGTCRHQEDDRQQLWSKLVIRAGSQEIELTENAPRVTSRDLEWLAYTLGRYLGRRVTQARQDCRST”, the protein production entry is reported as “failed”.

On to “MTEMELKLIKIDTSHYFEKKPGLGERVDYAGRCFYNKFQRVNAMLTSSLIQKHLKREIEIAHNLILRNDKVENIVFDYNGRNPERFYHKAQLLLREEGFMNFTAYNTKTPGHLHLYVHKGHTELGEGERLVKTLSMKLAQGLPKEWKVFPSNEWPKEFNILALPYEVFAKERGSSWAKHL”, for which the protein production result was “not failed”.

In the case of “MTENAEKFLWGVATSAYQIEGATQEDGRGPSIWDAFAQRPGAIRDGSTGEPACDHYRRYEEDIALMQSLGVRAYRFSVAWPRILPEGRGRINPKGLAFYDRLVDRLLASGITPFLTLYHWDLPLALEERGGWRSRETAFAFAEYAEAVARALADRVPFFATLNEPWCSAFLGHWTGEHAPGLRNLEAALRAAHHLLLGHGLAVEALRAAGARRVGIVLNFAPAYGEDPEAVDVADRYHNRFFLDPILGKGYPESPFRDPPPVPILSRDLELVARPLDFLGVNYYAPVRVAPGTGTLPVRYLPPEGPATAMGWEVYPEGLYHLLKRLGREVPWPLYVTENGAAYPDLWTGEAVVEDPERVAYLEAHVEAALRAREEGVDLRGYFVWSLMDNFEWAFGYTRRFGLYYVDFPSQRRIPKRSALWYRERIARAQT”, the protein production result is reported as “not failed”.

“MTENGRYEYIVIGSEAAGVGLVRELTAAGKKVLAVDKSKEKIELLEDEGFDAVIADPTDESFYRSLDLEGVSAVLITGSDDEFNLKILKALRSVSDVYAIVRVSSPKKKEEFEEAGANLVVLVADAVKQAFMDKIKKMETL”: the protein production entry is “not failed”.
